Measured values: patent publication US20180245075, “INTEGRATED SYSTEM FOR PROGRAMMABLE DNA METHYLATION” (Trustees of Boston University, published 2018)

Columns and labels:
[1] = molecular target: ZF10-1-Dam(N132A) writer (synI) (synthetic; Escherichia coli Dam, UniProt P0AEE8 SEQ:21-472); assay: cell_activity; integrated Clustered Reporter, GATC 140 bp downstream, vs mCherry-Dam; ~6-fold on transient reporter (p253); conditions: tags: NLS, ZF10-1 six-finger array fused to Dam
Procedure: Fraction methylation was measured using m6A-qPCR at a single GATC site proximal to the ZF BS array in the singly integrated Clustered Reporter (6th site, 140 bp downstream from end of ZF array). (n=3; error bars, SD). […] (n=3; error bars, SD). […] Diagonal line represents no enrichment in ZF sequence-specific methylation over “background” methylation. Dam N132A and WT are marked in red and black, respectively. (n=3; error bars, SD). […] Cells were transfected with the indicated constructs: Interspersed Reporter only, ZF-VP64 constitutively expressed from pUBC, synI^NT (Dam WT) constitutively expressed from a strong promoter (pCLPIT with no Dox induction), synI^NT (Dam WT) constitutively expressed from a weak promoter (pMinCMV), and synI^NT (Dam N132A) constitutively expressed from a weak promoter (pMinCMV). Genomic DNA (gDNA) was isolated 2 days following transfection, digested with or without DpnII, run out on an agarose gel (top), and the bands used to quantify total fraction methylated DNA (bottom). Undigested bands appearing at the top of each lane in DpnII-treated samples represent methylated (protected) gDNA, while […] gDNA fragments that are digested by DpnII appear as a smear (from ˜0.3-2 kb). Total fraction methylated gDNA is calculated as undigested gDNA in DpnII-treated samples normalized by total gDNA. […]

[2] = molecular target: ZF10-1-Dam(WT) writer (synthetic; Escherichia coli Dam, UniProt P0AEE8 SEQ:21-472); assay: cell_activity; with DpnI-VP64, episomal interspersed reporter; conditions: tags: NLS, ZF10-1 six-finger array fused to Dam
Procedure: Reporter plasmid was co-transfected with Writer and Reader-Effector constructs, and single-cell GFP levels were measured with flow cytometry two days post-transfection. […] Specific constructs corresponding to the data below were: Reporter: [8XZF_14XGATC_interspersed] minimal CMV promoter; Writer: minCMV-ZF10-1-Dam (WT); and Reader-Effector: UBC-NLS-DpnI DBD-VP64.
Flow cytometry measurements were performed using an Attune NxT Flow Cytometer (Thermo Fisher Scientific) equipped with a high-throughput auto-sampler. Typically, 50,000 or 70,000 events were acquired for transient transfection or stable cell line experiments, respectively. Cells were gated by forward (FSC) and side scatter (SSC) distributions, and either iRFP or mCherry expression for transfection- or integration-positive populations, respectively. For experiments with transient transfection of synI/synR modules (FIGS. 9A-9C), geometric means of the GFP fluorescence distributions were calculated using FLOWJO (Treestar Software). GFP fold change was then calculated by normalizing mean GFP intensity to reporter-only controls, unless otherwise noted. For spreading and memory experiments (with integrated constructs), the percentage of GFP activated cells was quantified using a GFP+gate that contains ˜0.5-1% of negative control cells (FIG. 17E). […]

B1: ZF10-1 binding sequence (BS), arrayed in reporter (dsDNA)
DNA 1: CGGCGTAGCCGATGTCGCGC
DNA 2: GCGCGACATCGGCTACGCCG
- activity [1]: ~10 fold m6A enrichment
- activity [2]: > 100 fold GFP activation
